This experiment addresses human FcRn (human) (UniProt P55899). Nature of the experiment: SPR, hFcRn as ligand.

human FcRn (human), sequence (P55899 24-297 limits assumed, chain 1 of 2): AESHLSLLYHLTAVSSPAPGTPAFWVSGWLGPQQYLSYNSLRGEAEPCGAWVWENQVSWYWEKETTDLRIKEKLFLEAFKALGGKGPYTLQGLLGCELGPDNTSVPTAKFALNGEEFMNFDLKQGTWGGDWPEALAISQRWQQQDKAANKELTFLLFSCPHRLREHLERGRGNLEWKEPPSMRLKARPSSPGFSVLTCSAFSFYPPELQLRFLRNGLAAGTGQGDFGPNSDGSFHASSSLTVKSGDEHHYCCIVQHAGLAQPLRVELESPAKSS
human FcRn (human), sequence (P61769 21-119 limits assumed, chain 2 of 2, further chain): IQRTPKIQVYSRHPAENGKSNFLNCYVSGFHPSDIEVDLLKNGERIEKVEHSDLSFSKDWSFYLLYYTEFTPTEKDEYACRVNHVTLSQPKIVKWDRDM

Usually Kd stands for the equilibrium constant for the complex coming apart. Read a high Kd as a looser complex. In turn, Ipilimumab (antibody) returned a Kd of 518 nM.

The values above are taken from patent US20240141007A1.
